# Substitutions are numbered along the chain they refer to.
# B1: 20F1 mAb (antibody, V domains shown)
# VH: EVQVQESGPGLVKPSQTLSLTCTVSGGSMTGNYYAWSWIRQPPGKGLEWMGVIAYDGSTYYSPSLKSRTSISRDTSKNQFSLQLSSVSPEDTAVYYCARGPGWYSGSRNDYWGQGTQVTVSS
# VL: QSALTQPPSVSGSPGKTVTISCTGTNSDVGYGNYVSWYQQLPGMAPKLLIYDVNRRASGIADRFSGSKSGNTASLTISGLQSEDEGDYHCASYRSANNAVFGGGTHLFVL
# B2: 53E3 (antibody, V domains shown)
# VH: QVQLQESGPGLVKPSQTLSLTCTVSGGSITTNYYYWSWIRQSPGKGLEWIGVIAYEGSTDYSPSLKSRVTISRDTSKNQFSLQLSSVTAEDTAVYYCARDVRVIATGWATANALDAWGQGTLVTVSS
# VL: QSVLTQPPSVSGSPGQTVTISCAGTSSDVGYGNYVSWYQQLPGTAPKLMIFAVSYRASGIPDRFSGSKSGNTASLTISGLQSEDEADYYCASYRSSNNAAVFGGGTKLTVL
# notes: also called germlined variant of 36C4
# B3: 36C4 Fab (Fab, V domains shown)
# VH: B2 VH with Q5V, T23A, I50M, E56D, V69T, T70S, A89P
# VL: B2 VL with Q16K, M49L, S74F, K107H
# notes: Fab from the phage display library, tested as periplasmic extract
# B4: 53A11 (antibody, V domains shown)
# VH: B2 VH with E56D, G57A
# VL: B2 VL with L41P, S74F
# notes: as for B2
# B5: 55A12-54E (antibody, V domains shown)
# VH: B2 VH with Q5V, T30S, Q83K
# VL: B2 VL with V3A, T17S, L41P, M49L, I60V, S82A
# notes: as for B2
# B6: 34H7 mAb (antibody, V domains shown)
# VH: ELQLVESGGALVQPGGSLRLSCVESGFTFSSYAMSWVRQAPGKGLEWVSGIYKGGGPKYANSVKGRFTISRDNAKNTLYLQMNSLKPEDTAVYYCAKSGYGSSLGDFGSWGQGTQVTVSS
# VL: QAGLTQLSSMSGSPGQTVTITCTGSSSNIGGGYYLSWYQHLPGTAPKLLIYSNINRASGVPDRFSGSTSGISASLTITGLQAEDEADYYCSSWDDSVSGPVFGGGTSLTVL
# B7: 34H7 Fab (Fab, V domains shown)
# VH: B6 VH
# VL: B6 VL
# notes: as for B3
# B8: 20A11 mAb (antibody, V domains shown)
# VH: QVQLVESGGGLVQPGGSLRLSCAASGFTFDDYAMSWVRQAPGKGLEWVSAISWNGSSTYYAESMKGRFTISRDNAKNTLYLQMNSLKSEDTAVYYCAKDLIGSHDYWGQGTQVTVSS
# VL: QAVLTQPPSVSGTLGKTLTISCAGTSSDVGYGNYVSWYQQLPGTAPKLLIYAVSTRASGIPDRFSGSKSGNTASLTISGLQSEDEADYYCASYRSSNNYAFGAGTKLTVL
# B9: 20A11 Fab (Fab, V domains shown)
# VH: B8 VH
# VL: B8 VL
# notes: as for B3
# B10: 40B8 Fab (Fab, V domains shown)
# VH: EVQLVQPGAELRNPGASVKVSCKASGYTFTNYVIDWVRQAPGQGLEWMGRIDPENGGTRYAQKFQGRVTFTADTSTSTAYVELSNLRSEDTAVYYCARLEDYELAYDYWGQGTQVTVSS
# VL: DIVMTQTPSSVTASAGEKVTINCKSSQSVLLSSNQKNYLAWYQQRLGQSPRLLIYWASTRESGVPDRFSGSGSTTDFTLTISSFQPEDAAVYYCQQGVSFPLTFGQGTKVELK
# notes: as for B3
# B11: 38H10 mAb (antibody, V domains shown)
# VH: EVQLVQPGVELRNPGASVKVSCKASGYIFTMNSIDWVRQAPGQGLEWMGRIDPEDGGTKYAQKFQGRVTFTADTSTSTAYVELNSLRSEDTAVYYCARVDDYYLGYDYWGQGTQVTVSS
# VL: EIVMTQSPSSVTASAGEKVTINCKSSQSVLWRSNQKNYLAWYQQRLGQSPRLLISWASIRESGVPDRFSGSGSTTDFTLTISSFQPEDAAVYYCQQGYSFPYTFGSGTRLEIK
# B12: 38H10 Fab (Fab, V domains shown)
# VH: B11 VH
# VL: B11 VL
# notes: as for B3
# B13: 12G4 mAb (antibody, V domains shown)
# VH: QLQLVESGGGMAQPGGSLKLSCAASGFTFDDYAMTWVRQAPGKGLEWLSTISWNDINTYYAESMKDRFTISRDNAKNTLYLQMNSLESEDTAVYYCAKRRDNYYGTSGEYDYWGQGTQVTVSS
# VL: QSALTQPPSVSGTLGKTVTISCAGTSSDIGNYNYVSWYQQLPGTAPKLLIYEVNKRPSGIPDRFSGSKSGNTASLSISGLQSEDEADYYCASYRSSNNVVFGGGTKLTVL
# B14: murine 5D5 antibody (antibody, V domains shown)
# VH: QVQLQQSGPELVRPGASVKMSCRASGYTFTSYWLHWVKQRPGQGLEWIGMIDPSNSDTRFNPNFKDKATLNVDRSSNTAYMLLSSLTSADSAVYYCATYGSYVSPLDYWGQGTSVTVSS
# VL: DIMMSQSPSSLTVSVGEKVTVSCKSSQSLLYTSSQKNYLAWYQQKPGQSPKLLIYWASTRESGVPDRFTGSGSGTDFTLTITSVKADDLAVYYCQQYYAYPWTFGGGTKLEIK
# Columns and labels:
# [1] = target: T1, recombinant dimeric c-Met (R&D systems, 358-MT/CF) (human, UniProt P08581 25-932); assay: competition ELISA, mAb against 25 ng/ml biotinylated HGF on captured dimeric c-Met
# T1 construct: Bought product; also called Fc-Met; recombinant c-Met
# T1 sequence (P08581 25-932 limits assumed): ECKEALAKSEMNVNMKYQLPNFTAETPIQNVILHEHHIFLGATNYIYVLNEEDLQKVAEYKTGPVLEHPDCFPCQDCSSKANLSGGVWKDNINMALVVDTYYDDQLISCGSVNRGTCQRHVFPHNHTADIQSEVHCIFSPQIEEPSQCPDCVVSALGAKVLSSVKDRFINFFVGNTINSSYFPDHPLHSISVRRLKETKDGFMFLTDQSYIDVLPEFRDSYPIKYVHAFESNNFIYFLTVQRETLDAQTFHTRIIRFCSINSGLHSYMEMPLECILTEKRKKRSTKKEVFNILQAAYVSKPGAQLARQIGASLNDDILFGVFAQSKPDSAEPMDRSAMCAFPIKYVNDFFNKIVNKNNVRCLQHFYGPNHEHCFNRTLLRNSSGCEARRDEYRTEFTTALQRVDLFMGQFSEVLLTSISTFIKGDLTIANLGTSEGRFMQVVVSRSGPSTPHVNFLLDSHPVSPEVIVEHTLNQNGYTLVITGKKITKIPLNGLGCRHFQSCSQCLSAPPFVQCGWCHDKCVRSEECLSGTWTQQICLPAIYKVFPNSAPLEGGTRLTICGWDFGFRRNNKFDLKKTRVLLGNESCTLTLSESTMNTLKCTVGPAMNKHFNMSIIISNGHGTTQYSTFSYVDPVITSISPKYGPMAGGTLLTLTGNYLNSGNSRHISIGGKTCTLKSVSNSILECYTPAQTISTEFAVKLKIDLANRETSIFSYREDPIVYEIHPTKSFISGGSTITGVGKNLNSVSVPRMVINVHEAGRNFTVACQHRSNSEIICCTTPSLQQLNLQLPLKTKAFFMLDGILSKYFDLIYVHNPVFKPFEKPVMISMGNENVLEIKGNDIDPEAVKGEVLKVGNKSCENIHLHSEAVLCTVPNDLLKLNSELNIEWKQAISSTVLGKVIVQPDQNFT
# Procedure: (§1) Competition with N-terminally biotinylated HGF for binding to immobilized c-Met was performed using an ELISA-based competition assay. Five μg/ml mouse anti-His antibodies (Serotech) was immobilized on a maxisorb plate and, after blocking with 1% casein in PBS for 2 h, 100 ng/ml recombinant dimeric c-Met was added and incubated for 1 h at room temperature. After washing, dilutions of the antibodies were added and allowed to bind to the captured c-Met for 30 minutes, before 25 ng/ml N-terminally biotinylated HGF (R&D systems, 294-HGN/CF) was added. Biotinylated HGF was incubated at room temperature for 1 h before washing. Horseradish-conjugated streptavidin (strep-HRP) was added and incubated for an additional hour. TMB was added and the plate read at 620 nm. An isotype control (hIgG1λ) was included as a control as well as murine 5D5 antibody. Competition was expressed as percentage competition as compared to the controls (strep-HRP only or hIgG1λ) and plotted against the concentration of antibodies. An IC₅₀ was calculated using GraphPad Prism (Table 10). Antibodies 13E6 and 20A11 only displaced HGF partially (about 50%), which may be related to the epitope these two mAbs recognize on the c-Met.
# [2] = target: T2, Decoy c-Met (extracellular domain of human c-Met) (human, UniProt P08581 25-932); assay: SPR: mAb (0.5 µg/ml) kept 1 h at the given temperature, run over a CM-5 chip coupled with 15,000-17,000 RU Decoy c-Met; slope between 100 and 130 s at 30 µl/min in percent of the sample kept at 4 °C
# T2 construct: extracellular domain; also called Decoy Met; monomeric Decoy Met
# T2 sequence (P08581 25-932): as the sequence (P08581 25-932 limits assumed) above
# [3] = target: T1, recombinant dimeric c-Met (R&D systems, …); assay: SPR, Fab-containing periplasmic extract over immobilised c-Met, dissociation 2 min
# Procedure: HGF-competing clones were sequenced in the VH and the VL regions and divided into VH families based on the sequence of the CDR3 in the VH. These VH families were further tested with Surface Plasmon Resonance (SPR) for dissociation (koff) and recognition of SEMA-PSI or the extracellular domain of c-Met (Decoy). Between 1000-2000 RU of dimeric c-Met, SEMA-PSI or Decoy c-Met was immobilised on a VIA chip with amine coupling in sodium acetate buffer (pH 4.5). The Fab-containing peris were added with a flow rate of 30 μl/min and Fabs were considered to be binding if an increase of the RU was observed. The koff was measured for 2 minutes for each sample.
# [4] = target: T1, recombinant dimeric c-Met (R&D systems, …); assay: competition ELISA: recombinant dimeric c-Met (100 ng/ml) captured by coated mouse anti-His antibody; antibody dilutions 30 min, then 25 ng/ml N-terminally biotinylated HGF (the competitor); strep-HRP, TMB, 620 nm; percent competition against the controls
# Procedure: as §1
# [5] = target: T3, Rhesus (Maccaca mulatta, US20090191580-5) c-Met ECD (Rhesus (Maccaca mulatta)); assay: binding ELISA, Rhesus c-Met ECD immobilised (1 µg/ml)
# T3 construct: extracellular domain; also called Rhesus c-Met ECD; Rhesus ECD
# Procedure: Cross reactivity to Rhesus (Maccaca mulatta, US20090191580_{—}5) c-Met ECD and mouse c-Met (R&D systems cat no: 527-ME) was performed in a binding ELISA. Rhesus ECD was immobilized in PBS (1 μg/ml) on a 96-well maxisorb plate and incubated at 4° C. over night. After blocking with 1% casein in PBS, the antibodies in dilutions starting with 10 μg/ml were added and allowed to bind for 1 h at room temperature. The plate was washed and a goat anti-human Fcγ antibody (Jackson) was added and incubated for 1 h at room temperature. After washing, TMB was added and the plate read at 620 nm
# c-Met SEMA ectodomain = target: T4, c-Met SEMA ectodomain (human, UniProt P08581 27-515); assay: ELISA on immobilised c-Met ectodomains
# T4 construct: domain: SEMA; also called SEMA domain
# T4 sequence (P08581 27-515): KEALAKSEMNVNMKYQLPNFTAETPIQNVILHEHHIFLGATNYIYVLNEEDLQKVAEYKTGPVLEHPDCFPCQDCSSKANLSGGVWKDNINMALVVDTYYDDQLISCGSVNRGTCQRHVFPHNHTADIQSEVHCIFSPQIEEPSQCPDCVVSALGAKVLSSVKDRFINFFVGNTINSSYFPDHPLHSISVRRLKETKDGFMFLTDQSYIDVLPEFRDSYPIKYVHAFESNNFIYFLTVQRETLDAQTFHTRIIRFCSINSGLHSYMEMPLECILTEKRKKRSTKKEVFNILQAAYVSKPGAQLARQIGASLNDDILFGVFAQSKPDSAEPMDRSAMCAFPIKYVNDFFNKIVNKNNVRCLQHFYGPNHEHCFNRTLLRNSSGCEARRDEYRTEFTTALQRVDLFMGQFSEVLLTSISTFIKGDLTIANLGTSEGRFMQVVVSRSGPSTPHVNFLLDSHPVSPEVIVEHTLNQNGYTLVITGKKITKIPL
# [6] = target: T5, c-Met SEMA-PSI ectodomain (human, UniProt P08581 25-562, limits assumed); assay: ELISA on immobilised c-Met ectodomains
# T5 construct: domain: SEMA-PSI
# T5 sequence (P08581 25-562 limits assumed): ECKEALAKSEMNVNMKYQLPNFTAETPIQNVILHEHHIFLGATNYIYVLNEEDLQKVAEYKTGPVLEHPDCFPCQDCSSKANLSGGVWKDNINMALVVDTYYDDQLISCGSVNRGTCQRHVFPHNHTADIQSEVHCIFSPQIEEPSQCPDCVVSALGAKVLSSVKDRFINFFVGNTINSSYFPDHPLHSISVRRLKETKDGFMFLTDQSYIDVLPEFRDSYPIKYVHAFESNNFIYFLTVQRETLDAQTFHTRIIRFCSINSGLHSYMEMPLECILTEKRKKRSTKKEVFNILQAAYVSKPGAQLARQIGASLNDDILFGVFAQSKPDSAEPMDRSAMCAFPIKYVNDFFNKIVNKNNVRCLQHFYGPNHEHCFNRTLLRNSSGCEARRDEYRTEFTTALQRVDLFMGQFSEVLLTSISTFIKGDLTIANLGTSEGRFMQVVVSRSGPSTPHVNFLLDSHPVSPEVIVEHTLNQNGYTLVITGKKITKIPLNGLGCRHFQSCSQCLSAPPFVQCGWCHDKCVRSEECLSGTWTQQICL
# [7] = target: T6, c-Met SEMA-PSI-IPT1-2 ectodomain (human, UniProt P08581 25-741, limits assumed); assay: ELISA on immobilised c-Met ectodomains
# T6 construct: domain: SEMA-PSI-IPT1-2; also called IPT1-2 (as recognised domain)
# T6 sequence (P08581 25-741 limits assumed): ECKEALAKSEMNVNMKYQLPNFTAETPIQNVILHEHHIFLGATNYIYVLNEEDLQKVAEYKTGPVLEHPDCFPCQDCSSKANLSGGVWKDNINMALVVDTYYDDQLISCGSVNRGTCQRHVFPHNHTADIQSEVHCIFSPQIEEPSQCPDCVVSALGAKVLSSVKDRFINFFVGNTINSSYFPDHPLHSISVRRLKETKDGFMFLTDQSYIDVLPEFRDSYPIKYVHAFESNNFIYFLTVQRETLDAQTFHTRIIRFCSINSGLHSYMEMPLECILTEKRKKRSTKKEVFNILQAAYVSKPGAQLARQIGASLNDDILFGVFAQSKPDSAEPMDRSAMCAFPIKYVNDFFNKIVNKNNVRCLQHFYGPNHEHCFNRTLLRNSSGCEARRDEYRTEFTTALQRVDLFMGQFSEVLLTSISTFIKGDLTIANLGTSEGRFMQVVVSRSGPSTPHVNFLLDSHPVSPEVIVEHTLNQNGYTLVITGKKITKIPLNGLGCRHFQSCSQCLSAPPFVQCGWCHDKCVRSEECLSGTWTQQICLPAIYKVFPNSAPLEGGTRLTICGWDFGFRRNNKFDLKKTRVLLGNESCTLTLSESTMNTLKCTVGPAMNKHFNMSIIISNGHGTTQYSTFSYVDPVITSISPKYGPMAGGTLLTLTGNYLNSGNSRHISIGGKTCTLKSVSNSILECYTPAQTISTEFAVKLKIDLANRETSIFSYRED
# c-Met IPT3-4 ectodomain = target: T7, c-Met IPT3-4 ectodomain (human, UniProt P08581 742-932, limits assumed); assay: ELISA on immobilised c-Met ectodomains
# T7 construct: domain: IPT3-4
# T7 sequence (P08581 742-932 limits assumed): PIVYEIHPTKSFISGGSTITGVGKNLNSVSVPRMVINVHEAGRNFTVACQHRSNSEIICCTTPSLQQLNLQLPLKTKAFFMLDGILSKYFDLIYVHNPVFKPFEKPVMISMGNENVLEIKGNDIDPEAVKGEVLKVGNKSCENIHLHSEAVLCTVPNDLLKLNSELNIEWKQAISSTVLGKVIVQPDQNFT
# [8] = target: T2, Decoy c-Met (extracellular domain of …); assay: binding ELISA, human c-Met (Decoy)
# [9] = target: T1, recombinant dimeric c-Met (R&D systems, …); assay: SPR, periplasmic Fab over Fc-Met (around 3000 RU) on CM5 chip
# Procedure: The clones were then tested for their dissociation constants by Surface Plasmon Resonance. Around 3000 RU of Fc-Met was immobilized directly onto a CM5 chip to obtain a clear binding profile from the periplasmic extracts. Clones with an improved off-rate were sent for sequencing.
binder,measurement,setting,value
B1,IC50,[1],0.36 nM
B2,binding result,[2],binds
B3,koff,[3],0.00064 s⁻¹
B4,binding result,[2],binds
B5,binding result,[2],binds
B6,IC50 (read off the curve),[4],~0.2 nM
B7,koff,[3],0.0016 s⁻¹
B8,EC50,[5],3.4 nM
same,binding result,c-Met SEMA ectodomain,no binding (tested: 1 µg/ml)
same,binding result,[6],no binding (tested: 1 µg/ml)
same,binding result,[7],no binding (tested: 1 µg/ml)
same,binding result,c-Met IPT3-4 ectodomain,no binding (tested: 1 µg/ml)
same,EC50,[8],4.3 nM
B9,koff,[3],0.0009 s⁻¹
B10,koff,[3],0.0013 s⁻¹
B11,EC50,[5],0.17 nM
same,EC50,[8],0.19 nM
same,IC50 (read off the curve),[4],~0.03 nM
B12,koff,[3],0.0012 s⁻¹
same,koff,[9],0.0005 s⁻¹
B13,IC50,[1],0.26 nM
same,EC50,[5],0.34 nM
same,EC50,[8],0.42 nM
B14,IC50 (read off the curve),[4],~0.8 nM
